Test results taken from US20250163122A1, “COMPOSITIONS AND METHODS FOR TREATING AIRWAY MUCUS DYSFUNCTION” (BOARD OF REGENTS, THE UNIVERSITY OF TEXAS SYSTEM, priority 2022, published 2025).
Bridges are numbered along the chain shown (N, C = ends). Where no end group is shown, it is not given here. [ ]: non-standard residue; d: D form. S5 = C=CCCC[C@](C)(N)C(=O)O

B1: SP9-Cy3 (peptide)
peptide: Ac-EE[S5]KDA[S5]IR[S5]LVM[S5]DEQ
modifications: staple 10-14, 3-7; not fully specified (C-terminus); printed as Ac-EE(S5)KDA(S5)IR(S5)LVM(S5)DEQ-(C/Cy3Mal)-amide; also: Cy3 maleimide on C-terminal Cys
notes: Synthetic hydrocarbon-stapled peptide; This Cy3-labeled form was used in the bulk fluorescence anisotropy assay, diluted to 10 nM; also called Cy3 labeled SP9; Cy3-labeled SP9
B2: P0-Cy3 (peptide)
peptide: EESKDAGIRTLVMLDEQGEQLD-{C(Cy3 maleimide)-NH2}
notes: Labeled control peptide of the anisotropy assay; also called PO-Cy3; Cy3-labeled P0

What was measured:
Syt1 C2B [1] = target: T1, Syt1 C2B (Homo sapiens (Human), UniProt P21579 272-422); experiment: bulk fluorescence anisotropy, Cy3-labeled peptide with varying concentrations of unlabeled C2B; Hill fit with coefficient constrained to one
T1 construct: Expressed as a GST fusion in E. coli and the tag cleaved with PreScission protease; also called C2B domain of Syt1; Syt1C2B, aa 271-421
T1 sequence (P21579 272-422 limits assumed): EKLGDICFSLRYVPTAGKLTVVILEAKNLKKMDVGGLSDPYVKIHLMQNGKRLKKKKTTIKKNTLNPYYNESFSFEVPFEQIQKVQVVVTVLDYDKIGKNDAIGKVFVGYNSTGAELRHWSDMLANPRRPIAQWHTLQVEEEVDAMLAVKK

Syt2 C2B [2] = target: T2, Syt2 C2B (Rattus norvegicus (Rat), UniProt P29101 272-422); experiment: as above
T2 construct: also called C2B domain of Syt2
T2 sequence (P29101 272-422 limits assumed): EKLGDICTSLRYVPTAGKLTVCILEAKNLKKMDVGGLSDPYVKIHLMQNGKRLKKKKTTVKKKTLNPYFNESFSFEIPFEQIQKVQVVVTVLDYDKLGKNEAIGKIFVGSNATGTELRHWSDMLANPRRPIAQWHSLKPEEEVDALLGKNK

Syt1 C2B [3] = target: T1, Syt1 C2B; experiment: bulk fluorescence anisotropy, Cy3-labeled peptide with varying concentrations of C2B
Syt2 C2B [4] = target: T2, Syt2 C2B; experiment: as above

| Binder | Kd (Syt1 C2B [1]) | Kd (Syt2 C2B [2]) | binding result (Syt1 C2B [3]) | binding result (Syt2 C2B [4]) |
| --- | --- | --- | --- | --- |
| B1 | 24 µM | 35 µM |  |  |
| B2 |  |  | no binding | no binding |
